Reference: US20210032364A1 (NOMOCAN PHARMACEUTICALS, published 2021)

T1: NMC-P1 peptide (human)
T1 construct: Peptide corresponding to amino acids 1-15 of HDM2
T1 peptide: MCNTNMSVPTDGAVT

T2: NMC-P2 peptide (human)
T2 construct: Peptide corresponding to amino acids 15-25 of HDM2
T2 peptide: TTSQIPASEQE

T3: NMC-P3 peptide (human)
T3 peptide: CPVCRQPIQMIVLTYFP

B1: monoclonal antibody NMC-103 (antibody, IgG1, V domains shown)
VH: EVQLQESGGGLVQPGGSLRLSCTTSGFTFTHYYMSWVRQPPGKALEWLGFIRNKAKGYTAEYSASVKGRFTISRDNSQSILYLQMNTLRPEDSATYYCARDIGDNWGQGTLVTVSS
VL: DIVMTQAAFSNPVTLGTSASISCRSSKNLLHSNGITYLYWYLQRPGQSPQLLISRVSNLASGVPNRFSGSESGTDFTLRISRVEAEDVGVYFCAQLLELPYTFGGGTKLEIK
B2: monoclonal antibody NMC-204 (antibody, IgG3, V domains shown)
VH: EVQLQESGSVLVRPGASVKLSCKASGDTLSGSWMHWAMQRPGQGLEWIGEIHLNRGTTNYNEKFKGKATVTVDTSSSTAYVDLSSLTSEDSAVYYCARSPGFAYWGQGTLVTVSA
VL: GIVMTQAAPSVPVTPGESVSISCRSSKSLLHSNGNSYLYWFLQRPGQSPQLLIYRMSNLASGVPDRFSGSGSGTAFTLRITRVEAEDVGVYYCMQHLEYPFTFGSGTKLEIK
B3: monoclonal antibody NMC-303 (antibody, V domains shown)
VH: QVQLQQPGAELVKPGASVKLSCKASGYTFTSYYMYWVKQRPGQGLEWIGGINPRNGGTNFNEKFKNKATLTADKSSTTAYMQLSSLTSEDSAVYYCTRSGYYAMDYWGQGTSVTVSS
VL: DIQMTQTTSSLSASLGDRVTISCRASQDISNFLNWYQQKPDGTVKLLIYYTSRLHSGVPSRFSGSGSGTDYSLTISNLEQEDIATYFCQQGNTLPRTFGGGTKLEIK

Legend:
NMC-P1 peptide = biological target: T1, NMC-P1 peptide; assay: peptide-ELISA, plate-bound peptide
Experimental: (§1) Peptide-ELISA Methodology: 5 μg/ml of NMC-P1, NMC-P2 or NMC-P3 peptide antigen was dried onto a 96-well ELISA plate overnight. Plates were then blocked with 5% BSA in 1× phosphate-buffered saline (PBS) (100 μl/well) for 2 hours at room temperature. Microplate wells were then washed 5 times with 300 μl of ice cold lx PBS. […] After 2 hours, wells were washed 5 times with 300 μl ice-cold PBS/well and 100 μl secondary antibody (HRP-labeled Goat anti-Mouse F(ab′)2 H&L cross-adsorbed secondary antibody (HRP-GaM F(ab′)2), ThermoFisher, Cat. No. A24524) diluted 1:2500 to 1:5000 in PBS-1% BSA solution were added and the incubation continued at room temperature. After 1 hour, the wells were washed again 5 times with 200 μl of ice-cold PBS and 50 μL of the TMB Substrate Solution (1-StepTM Ultra TMB-ELISA, ThermoFisher, Cat. No. 34028) were added to each well and color was allowed to develop for 30 minutes at room temperature. The reaction was stopped by addition of 50 μL of stop solution (ThermoFisher, Cat. No. SSO4) to each well and absorbance of each well was read immediately for optical density (OD) at 450 nm.

NMC-P2 peptide [1] = biological target: T2, NMC-P2 peptide; assay: peptide-ELISA, plate-bound peptide
Experimental: as §1

NMC-P3 peptide [2] = biological target: T3, NMC-P3 peptide; assay: competition peptide-ELISA, soluble peptide pre-incubated with the antibody
Experimental: as §1

NMC-P3 peptide [3] = biological target: T3, NMC-P3 peptide; assay: peptide-ELISA, plate-bound peptide
Experimental: as §1

[4] = biological target: T4, recombinant HDM2 protein (GST tagged, Abcam, Cat. No. ab188727) (human, UniProt Q00987 1-491); assay: immunoblot
T4 construct: Bought protein, called full-length, about 83 kD with the tag; also called recombinant full-length HDM2 protein; recombinant HDM2-GST protein; not shown: GST tag at the N-terminus
T4 sequence (Q00987 whole entry): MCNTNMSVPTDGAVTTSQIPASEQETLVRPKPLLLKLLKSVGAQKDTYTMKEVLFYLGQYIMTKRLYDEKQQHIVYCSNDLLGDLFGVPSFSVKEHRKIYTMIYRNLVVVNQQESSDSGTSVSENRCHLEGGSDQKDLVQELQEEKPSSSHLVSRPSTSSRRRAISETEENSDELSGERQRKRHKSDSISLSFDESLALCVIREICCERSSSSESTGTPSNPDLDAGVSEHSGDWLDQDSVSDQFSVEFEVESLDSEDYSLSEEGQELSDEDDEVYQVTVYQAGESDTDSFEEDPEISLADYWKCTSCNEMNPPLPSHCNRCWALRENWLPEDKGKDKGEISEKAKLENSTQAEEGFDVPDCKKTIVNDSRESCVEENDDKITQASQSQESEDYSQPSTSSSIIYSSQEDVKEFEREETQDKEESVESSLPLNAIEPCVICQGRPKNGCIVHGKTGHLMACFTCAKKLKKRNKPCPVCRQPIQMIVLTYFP
Experimental: Western Blot: As for immunoblots, 1 μg/well of recombinant HDM2 protein (GST tagged, Abcam, Cat. No. ab188727) was separated on 8-16% sodium dodecyl sulfate (SDS) polyacrylamide gel and proteins were then transferred to polyvinylidene difluoride (PVDF) membrane. […] The membrane was then washed×3 times (10 minutes each) and incubated for 1 hour with corresponding HRP-conjugated secondary antibody (Goat anti-Mouse IgG (H&L), F(ab′)2 Frag Cross-adsorbed HRP (HRP-GaM F(ab′)2), ThermoFisher, Cat. No. A24524) diluted 1:5000 in 1% BSA-PBS. The membrane was then washed×3 times and incubated with Pierce ECL Plus Western Blotting Substrate (ThermoFisher, Cat. No. #32132) for 10 min before developing on a LICOR Scanner.

NMC-P2 peptide [5] = biological target: T2, NMC-P2 peptide; assay: peptide competition in cell-ELISA on intact MIA PaCa-2 cells

| Binder | binding result (NMC-P1 peptide) | binding result (NMC-P2 peptide [1]) | binding result (NMC-P3 peptide [2]) | binding result (NMC-P3 peptide [3]) | binding result [4] | binding result (NMC-P2 peptide [5]) |
| --- | --- | --- | --- | --- | --- | --- |
| B1 | binds | no binding | no binding (tested: 10 µl/ml) | – | – | – |
| B2 | no binding | binds | – | no binding | – | – |
| B3 | – | – | – | binds | binds | no binding |
